Source: EP1396542B1 (Genetics Institute, LLC, dated 2011)

T1: P-selectin expressed on the surface of CHO cells (CHO:P-selectin cell line) (UniProt P16109 42-830, limits assumed)
T1 construct: whole, on cells
T1 sequence (looked up): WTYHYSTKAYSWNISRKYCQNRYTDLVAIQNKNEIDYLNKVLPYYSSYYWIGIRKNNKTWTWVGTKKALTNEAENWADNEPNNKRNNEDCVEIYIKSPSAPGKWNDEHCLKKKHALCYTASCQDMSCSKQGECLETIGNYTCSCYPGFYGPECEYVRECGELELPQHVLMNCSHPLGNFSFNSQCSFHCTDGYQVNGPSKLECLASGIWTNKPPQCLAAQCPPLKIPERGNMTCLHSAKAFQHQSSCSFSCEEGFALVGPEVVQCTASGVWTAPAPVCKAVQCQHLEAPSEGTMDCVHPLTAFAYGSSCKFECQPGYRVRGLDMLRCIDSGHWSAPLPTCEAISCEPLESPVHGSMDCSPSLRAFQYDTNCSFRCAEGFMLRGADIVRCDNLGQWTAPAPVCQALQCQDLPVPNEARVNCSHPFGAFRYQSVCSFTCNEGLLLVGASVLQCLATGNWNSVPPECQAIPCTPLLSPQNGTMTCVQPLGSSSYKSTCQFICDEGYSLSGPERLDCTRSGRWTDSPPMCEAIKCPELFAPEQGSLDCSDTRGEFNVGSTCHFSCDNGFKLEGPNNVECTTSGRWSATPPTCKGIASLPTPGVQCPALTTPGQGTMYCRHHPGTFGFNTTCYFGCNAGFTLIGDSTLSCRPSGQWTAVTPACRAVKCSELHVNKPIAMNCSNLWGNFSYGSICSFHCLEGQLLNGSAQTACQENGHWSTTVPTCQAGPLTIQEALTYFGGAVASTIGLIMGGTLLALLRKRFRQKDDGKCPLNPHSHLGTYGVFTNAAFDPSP


What was measured:
[1] = target: T1, P-selectin expressed on the surface of …; test: adhesion of 3H-thymidine labeled CHO:P-selectin cells to transfected COS cells, scintillation counting
[2] = target: T1, P-selectin expressed on the surface of …; test: conditioned medium coated onto plastic dishes, binding of CHO:P-selectin cells; reference is sPSL.T7 without PACE

| fold binding of CHO:P-selectin cells relative to COS mock cells [1] | fold increase in bound CHO:P-selectin cells against P-selectin ligand not co-expressed with PACE [2] | Binder |
| --- | --- | --- |
| ~5.4 fold |  | P-selectin ligand protein, full length, expressed on COS cells co-transfected with pMT21:PL85 and the 3/4FT gene (pEA.3/4FT) (ligand, glycoprotein made in cells co-expressing (α1,3/1,4) fucosyltransferase (3/4FT), also called PSL; protein encoded by pMT21:PL85) QATEYEYLDYDFLPETEPPEMLRNSTDTTPLTGPGTPESTTVEPAARRSTGLDAGGAVTELTTELANMGNLSTDSAAMEIQTTQPAATEAQTTPLAATEAQTTRLTATEAQTTPLAATEAQTTPPAATEAQTTQPTGLEAQTTAPAAMEAQTTAPAAMEAQTTPPAAMEAQTTQTTAMEAQTTAPEATEAQTTQPTATEAQTTPLAAMEALSTEPSATEALSMEPTTKRGLFIPFSVSSVTHKGIPMAASNLSVNYPVGAPDHISVKQCLLAILILALVATIFFVCTVVLAVRLSRKGHMYPVRNYSPTEMVCISSLLPDGGEGPSATANGGLSKAKSPGLTPEPREDREGDDLTLHSFLP |
|  | ~2 fold | sPSL.T7 co-expressed with 3/4FT and PACE (PACE-cleaved soluble P-selectin ligand) (ligand, not shown: large carriers, glycoprotein made in cells co-expressing 3/4FT, also called PACE-cleaved P-selectin ligand; sPSL.T7 from the CP/PSL-T7 (R4.1) CHO-PACE line) QATEYEYLDYDFLPETEPPEMLRNSTDTTPLTGPGTPESTTVEPAARRSTGLDAGGAVTELTTELANMGNLSTDSAAMEIQTTQPAATEAQTTPLAATEAQTTRLTATEAQTTPLAATEAQTTPPAATEAQTTQPTGLEAQTTAPAAMEAQTTAPAAMEAQTTPPAAMEAQTTQTTAMEAQTTAPEATEAQTTQPTATEAQTTPLAAMEALSTEPSATEALSMEPTTKRGLFIPFSVSSVTHKGIPMAASNLSV |
